Literature values in publication PMC6978450.
pKd: −log10 of the molar value.

Key:
IL-13Rα1 (Mus musculus) = IL-13Rα1 (Mus musculus) (UniProt O09030)
IL-13Rα2 (Mus musculus) = IL-13Rα2 (Mus musculus) (UniProt O88786)
Chain of UniProt O88786 (O88786 22-334): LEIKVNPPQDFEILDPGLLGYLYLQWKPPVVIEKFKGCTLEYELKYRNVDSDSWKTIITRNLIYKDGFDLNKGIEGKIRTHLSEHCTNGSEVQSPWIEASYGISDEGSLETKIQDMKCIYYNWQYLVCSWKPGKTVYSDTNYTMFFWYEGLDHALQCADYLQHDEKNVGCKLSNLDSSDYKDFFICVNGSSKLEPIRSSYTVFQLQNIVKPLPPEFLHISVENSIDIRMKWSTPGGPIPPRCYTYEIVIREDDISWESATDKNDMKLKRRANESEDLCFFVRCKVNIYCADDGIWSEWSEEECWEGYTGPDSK

Chain of UniProt O09030 (O09030 26-340): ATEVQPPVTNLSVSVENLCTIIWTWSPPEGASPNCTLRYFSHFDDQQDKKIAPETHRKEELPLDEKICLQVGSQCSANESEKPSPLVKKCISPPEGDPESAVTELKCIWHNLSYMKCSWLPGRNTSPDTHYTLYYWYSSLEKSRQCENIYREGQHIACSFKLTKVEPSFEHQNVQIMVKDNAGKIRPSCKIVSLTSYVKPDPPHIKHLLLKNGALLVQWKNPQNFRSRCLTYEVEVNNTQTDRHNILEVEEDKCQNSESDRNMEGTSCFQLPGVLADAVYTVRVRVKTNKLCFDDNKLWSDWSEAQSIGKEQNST

## IL-13 (from UniProt P20109)
IL-13Rα1 (Mus musculus)
  pKd: 7.52
IL-13Rα2 (Mus musculus)
  pKd: 9.36
